Results as given in publication PMC3620106, “One-Step Chromatographic Purification of Helicobacter pylori Neutrophil-Activating Protein Expressed in Bacillus subtilis” (PLoS ONE, 2013).

Target: the molecule itself
Test: AUC; sedimentation velocity, HP-NAP at 0.3 mg/ml in D-PBS, pH 7.2, 41,000 rpm, 20°C, SEDFIT c(s); monomer mass by LC-MS

B1: Helicobacter pylori neutrophil-activating protein (HP-NAP), recombinant, expressed in Bacillus subtilis (natural protein)
chain: MKTFEILKHLQADAIVLFMKVHNFHWNVKGTDFFNVHKATEEIYEEFADMFDDLAERIVQLGHHPLVTLSEAIKLTRVKEETKTSFHSKDIFKEILEDYKYLEKEFKELSNTAEKEGDKVTVTYADDQLAKLQKSIWMLQAHLA
notes: monomer 16.934 kDa by LC-MS (theoretical 16.933 kDa); napA was cut from pET28a-His-NAP with NdeI and XhoI and cloned into pRPA; The measured monomer mass (16.934 kDa) fits the theoretical mass of the whole untagged protein (16.933 kDa); also called recombinant HP-NAP; purified HP-NAP; source: B. subtilis DB104 harboring pRPA-NAP; copies: 12
  stoichiometry N: 12
